Measurements as given in paper PMC11672753 (Plant Biotechnology Journal, 2024).

Target: T1, SARS-CoV-2 RBD (Wuhan), hexahistidine-tagged (SARS-CoV-2, UniProt P0DTC2)
T1 construct: also called recombinant RBD protein
Test: BLI
Conditions: both partners purified

B1: M15 (plant-produced COVA2-15, conventional IgG1) (antibody, V domains shown)
VH: QVQLLESGGGLVQPGGSLRLSCAASGFTFSSYAMSWVRQAPGKGLEWASAISGSGGSTYYADSVEGRFTISRDNSKNTLYLQMNSLRAEDTAVYYCAKDTGYCGDDCYIKLIRGGPDYWGQGTLVTVSS
VL: DIVMTQSPLSLPVTLGQPASISCRSSQSLVYSDGNTFLNWFQQRPGQSPRRLIYQVSNRDSGVPDRFSGSGSGTDFTLKISRVEAEDVGVYYCMQGTHWPRTFGQGTKLEIK
  binding result: binds

B2: S15 (plant-produced COVA2-15, single-chain (sc)Fv-Fc format) (Fc fusion, human)
VH: QVQLLESGGGLVQPGGSLRLSCAASGFTFSSYAMSWVRQAPGKGLEWASAISGSGGSTYYADSVEGRFTISRDNSKNTLYLQMNSLRAEDTAVYYCAKDTGYCGDDCYIKLIRGGPDYWGQGTLVTVSS
VL: DIVMTQSPLSLPVTLGQPASISCRSSQSLVYSDGNTFLNWFQQRPGQSPRRLIYQVSNRDSGVPDRFSGSGSGTDFTLKISRVEAEDVGVYYCMQGTHWPRTFGQGTKLEIK
  binding result: binds
